{"source": "patent US7132258", "about": "(UNIVERSITY OF MASSACHUSETTS, dated 2006)", "binders": {"B1": {"name": "Gal4 DBD fusion of full-length human RARα (receptor, UniProt P04386 1-147, looked up)", "chain": "MKLLSSIEQACDICRLKKLKCSKEKPKCAKCLKNNWECRYSPKTKRSPLTRAHLTEVESRLERLEQLFLLIFPREDLDMILKMDSLQDIKALLTGLFVQDNVNKDAVTDRLASVETDMPLTLRQHRISATSSSEESSNKGQRQLTVSMASNSSSCPTPGGGHLNGYPVPPYAFFFPPMLGGLSPPGALTTLQHQLPVSGYSTPSPATIETQSSSSEEIVPSPPSPPPLPRIYKPCFVCQDKSSGYHYGVSACEGCKGFFRRSIQKNMVYTCHRDKNCIINKVTRNRCQYCRLQKCFEVGMSKESVRNDRNKKKKEVPKPECSESYTLTPEVGELIEKVRKAHQETFPALCQLGKYTTNNSSEQRVSLDIDLWDKFSELSTKCIIKTVEFAKQLPGFTTLTIADQITLLKAACLDILILRICTRYTPEQDTMTFSDGLTLNRTQMHNAGFGPLTDLVFAFANQLLPLEMDDAETGLLSAICLICGDRQDLEQPDRVDMLQEPLLEALKVYVRKRRPSRPHMFPKMLMKITDLRSISAKGAERVITLKMEIPGSMPPLIQEMLENSEGLDTLSGQPGGGGRDGGGLAPPPGSCSPSLSPSSNRSSPATHSP", "notes": "domain: Gal4 DBD;mature; also called full-length hRARα; pGBT-hRARα"}, "B2": {"name": "35S-labeled hRARα (in vitro translated) (receptor, human, UniProt P10276 1-462, looked up)", "chain": "MASNSSSCPTPGGGHLNGYPVPPYAFFFPPMLGGLSPPGALTTLQHQLPVSGYSTPSPATIETQSSSSEEIVPSPPSPPPLPRIYKPCFVCQDKSSGYHYGVSACEGCKGFFRRSIQKNMVYTCHRDKNCIINKVTRNRCQYCRLQKCFEVGMSKESVRNDRNKKKKEVPKPECSESYTLTPEVGELIEKVRKAHQETFPALCQLGKYTTNNSSEQRVSLDIDLWDKFSELSTKCIIKTVEFAKQLPGFTTLTIADQITLLKAACLDILILRICTRYTPEQDTMTFSDGLTLNRTQMHNAGFGPLTDLVFAFANQLLPLEMDDAETGLLSAICLICGDRQDLEQPDRVDMLQEPLLEALKVYVRKRRPSRPHMFPKMLMKITDLRSISAKGAERVITLKMEIPGSMPPLIQEMLENSEGLDTLSGQPGGGGRDGGGLAPPPGSCSPSLSPSSNRSSPATHSP", "notes": "Made in reticulocyte lysate; also called 35S-RAR"}, "B3": {"name": "Gal4 DBD fusion of full-length hRXRα (receptor, UniProt P04386 1-147, looked up)", "chain": "MKLLSSIEQACDICRLKKLKCSKEKPKCAKCLKNNWECRYSPKTKRSPLTRAHLTEVESRLERLEQLFLLIFPREDLDMILKMDSLQDIKALLTGLFVQDNVNKDAVTDRLASVETDMPLTLRQHRISATSSSEESSNKGQRQLTVSMDTKHFLPLDFSTQVNSSLTSPTGRGSMAAPSLHPSLGPGIGSPGQLHSPISTLSSPINGMGPPFSVISSPMGPHSMSVPTTPTLGFSTGSPQLSSPMNPVSSSEDIKPPLGLNGVLKVPAHPSGNMASFTKHICAICGDRSSGKHYGVYSCEGCKGFFKRTVRKDLTYTCRDNKDCLIDKRQRNRCQYCRYQKCLAMGMKREAVQEERQRGKDRNENEVESTSSANEDMPVERILEAELAVEPKTETYVEANMGLNPSSPNDPVTNICQAADKQLFTLVEWAKRIPHFSELPLDDQVILLRAGWNELLIASFSHRSIAVKDGILLATGLHVHRNSAHSAGVGAIFDRVLTELVSKMRDMQMDKTELGCLRAIVLFNPDSKGLSNPAEVEALREKVYASLEAYCKHKYPEQPGRFAKLLLRLPALRSIGLKCLEHLFFFKLIGDTPIDTFLMEMLEAPHQMT", "notes": "domain: Gal4 DBD;mature"}, "B4": {"name": "GST-RAC3-RID fusion (other)", "chain": "LESKGHKKLLQLLTCSSDDRGHSSLTNSPLDSSCKESSVSVTSPSGVSSSTSGGVSSTSNMHGSLLQEKHRILHKLLQNGNSPAEVAKITAQATGKDTSSITSCGDGNVVKQEQLSPKKKENNALLRYLLDRDDPSDALS", "notes": "Purified from DH5α cells, separated by SDS-PAGE, blotted, denatured and renatured on the filter; also called GST-RID fusion; not shown: glutathione S-transferase (GST) module"}, "B5": {"name": "RAC3 amino acids 401-624 as GAL4 DBD fusion (pCMX-Gal) (other)", "chain": "MKLLSSIEQACDICRLKKLKCSKEKPKCAKCLKNNWECRYSPKTKRSPLTRAHLTEVESRLERLEQLFLLIFPREDLDMILKMDSLQDIKALLTGLFVQDNVNKDAVTDRLASVETDMPLTLRQHRISATSSSEESSNKGQRQLTVSMSMSPNQGLQMPSSRAYGLADPSTTGQMSGARYGGSSNIASLTPGPGMQSPSSYQNNNYGLNMSSPPHGSPGLAPNQQNIMISPRNRGSPKIASHQFSPVAGVHSPMASSGNTGNHSFSSSSLSALQAISEGVGTSLLSTLSSPGPKLDNSPNMNITQPSKVSNQDSKSPLGFYCDQNPVESSMCQSNSRDHLSDKESKESSVEGAENQRGPLESKGHKKLLQL", "notes": "domain: GAL4 DBD"}, "B6": {"name": "SNF1 (other, UniProt P06782 1-633, looked up)", "chain": "MSSNNNTNTAPANANSSHHHHHHHHHHHHHGHGGSNSTLNNPKSSLADGAHIGNYQIVKTLGEGSFGKVKLAYHTTTGQKVALKIINKKVLAKSDMQGRIEREISYLRLLRHPHIIKLYDVIKSKDEIIMVIEYAGNELFDYIVQRDKMSEQEARRFFQQIISAVEYCHRHKIVHRDLKPENLLLDEHLNVKIADFGLSNIMTDGNFLKTSCGSPNYAAPEVISGKLYAGPEVDVWSCGVILYVMLCRRLPFDDESIPVLFKNISNGVYTLPKFLSPGAAGLIKRMLIVNPLNRISIHEIMQDDWFKVDLPEYLLPPDLKPHPEEENENNDSKKDGSSPDNDEIDDNLVNILSSTMGYEKDEIYESLESSEDTPAFNEIRDAYMLIKENKSLIKDMKANKSVSDELDTFLSQSPPTFQQQSKSHQKSQVDHETAKQHARRMASAITQQRTYHQSPFMDQYKEEDSTVSILPTSLPQIHRANMLAQGSPAASKISPLVTKKSKTRWHFGIRSRSYPLDVMGEIYIALKNLGAEWAKPSEEDLWTIKLRWKYDIGNKTNTNEKIPDLMKMVIQLFQIETNNYLVDFKFDGWESSYGDDTTVSNISEDEMSTFSAYPFLHLTTKLIMELAVNSQSN"}, "B7": {"name": "VDR364* (LBD of hVDR truncated at amino acid 364) as Gal4 DBD fusion (receptor, UniProt P04386 1-147, looked up)", "chain": "MKLLSSIEQACDICRLKKLKCSKEKPKCAKCLKNNWECRYSPKTKRSPLTRAHLTEVESRLERLEQLFLLIFPREDLDMILKMDSLQDIKALLTGLFVQDNVNKDAVTDRLASVETDMPLTLRQHRISATSSSEESSNKGQRQLTVSMKEFILTDEEVQRKREMILKRKEEEALKDSLRPKLSEEQQRIIAILLDAHHKTYDPTYSDFCQFRPPVRVNDGGGSHPSRPNSRHTPSFSGDSSSSCSDHCITSSDMMDSSSFSNLDLSEEDSDDPSVTLELSQLSMLPHLADLVSYSIQKVIGFAKMIPGFRDLTSEDQIVLLKSSAIEVIMLRSNESFTMDDMSWTCGNQDYKYRVSDVTKAGHSLELIEPLIKFQVGLKKLNLHEEEHVLLMAICIVSPDRPGVQDAALIEAIQDRLSNTLQ", "notes": "domain: Gal4 DBD;domain: LBD of hVDR truncated at amino acid 364"}, "B8": {"name": "RAC3 amino acids 401-695 as GAL4 DBD fusion (pCMX-Gal) (other)", "chain": "MKLLSSIEQACDICRLKKLKCSKEKPKCAKCLKNNWECRYSPKTKRSPLTRAHLTEVESRLERLEQLFLLIFPREDLDMILKMDSLQDIKALLTGLFVQDNVNKDAVTDRLASVETDMPLTLRQHRISATSSSEESSNKGQRQLTVSMSMSPNQGLQMPSSRAYGLADPSTTGQMSGARYGGSSNIASLTPGPGMQSPSSYQNNNYGLNMSSPPHGSPGLAPNQQNIMISPRNRGSPKIASHQFSPVAGVHSPMASSGNTGNHSFSSSSLSALQAISEGVGTSLLSTLSSPGPKLDNSPNMNITQPSKVSNQDSKSPLGFYCDQNPVESSMCQSNSRDHLSDKESKESSVEGAENQRGPLESKGHKKLLQLLTCSSDDRGHSSLTNSPLDSSCKESSVSVTSPSGVSSSTSGGVSSTSNMHGSLLQEKHRILHKLLQNGNSP", "notes": "domain: GAL4 DBD"}}, "key": {"[1]": {"molecular_target": "T1, RAC3.1 (yeast two-hybrid clone, RAC3 amino acids 401-1204) as Gal4 AD fusion (human, UniProt Q9Y6Q9 401-1204)", "T1 construct": "Order of the fusion (Gal4 AD at the N-terminus) follows the vector; also called Gal4 AD fusion (RAC3.1)", "T1 sequence": "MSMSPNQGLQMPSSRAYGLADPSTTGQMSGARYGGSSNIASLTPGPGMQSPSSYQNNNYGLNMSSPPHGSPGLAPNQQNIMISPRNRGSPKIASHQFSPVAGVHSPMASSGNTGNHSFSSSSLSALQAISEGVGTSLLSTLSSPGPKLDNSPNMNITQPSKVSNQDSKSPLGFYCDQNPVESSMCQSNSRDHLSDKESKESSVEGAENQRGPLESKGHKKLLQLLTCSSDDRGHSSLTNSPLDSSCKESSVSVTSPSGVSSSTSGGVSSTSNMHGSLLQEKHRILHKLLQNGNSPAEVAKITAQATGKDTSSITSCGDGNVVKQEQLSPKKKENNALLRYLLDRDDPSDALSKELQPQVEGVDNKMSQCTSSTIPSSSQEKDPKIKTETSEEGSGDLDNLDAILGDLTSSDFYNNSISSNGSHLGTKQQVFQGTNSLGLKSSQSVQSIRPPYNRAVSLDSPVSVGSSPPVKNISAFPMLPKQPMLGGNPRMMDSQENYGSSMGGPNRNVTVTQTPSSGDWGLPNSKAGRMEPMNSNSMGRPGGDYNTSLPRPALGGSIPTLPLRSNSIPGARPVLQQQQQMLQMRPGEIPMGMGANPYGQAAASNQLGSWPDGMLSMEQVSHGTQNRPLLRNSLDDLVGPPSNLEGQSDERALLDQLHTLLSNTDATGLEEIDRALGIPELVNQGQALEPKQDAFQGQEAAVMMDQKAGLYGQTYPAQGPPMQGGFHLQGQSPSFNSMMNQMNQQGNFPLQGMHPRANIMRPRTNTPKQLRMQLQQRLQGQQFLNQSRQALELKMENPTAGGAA", "test": "yeast two-hybrid screen for RAR-interacting proteins, Gal4 DBD-full-length hRARα as bait, HIS3 and LacZ reporters"}, "[2]": {"molecular_target": "T2, full-length RAC3 (in vitro translated, 35S-labeled or unlabeled) (human, UniProt Q9Y6Q9 2-1424)", "T2 construct": "Made in reticulocyte lysate; also called 35S-RAC3", "T2 sequence (Q9Y6Q9 other isoform, or with tags, fused parts or gaps limits assumed)": "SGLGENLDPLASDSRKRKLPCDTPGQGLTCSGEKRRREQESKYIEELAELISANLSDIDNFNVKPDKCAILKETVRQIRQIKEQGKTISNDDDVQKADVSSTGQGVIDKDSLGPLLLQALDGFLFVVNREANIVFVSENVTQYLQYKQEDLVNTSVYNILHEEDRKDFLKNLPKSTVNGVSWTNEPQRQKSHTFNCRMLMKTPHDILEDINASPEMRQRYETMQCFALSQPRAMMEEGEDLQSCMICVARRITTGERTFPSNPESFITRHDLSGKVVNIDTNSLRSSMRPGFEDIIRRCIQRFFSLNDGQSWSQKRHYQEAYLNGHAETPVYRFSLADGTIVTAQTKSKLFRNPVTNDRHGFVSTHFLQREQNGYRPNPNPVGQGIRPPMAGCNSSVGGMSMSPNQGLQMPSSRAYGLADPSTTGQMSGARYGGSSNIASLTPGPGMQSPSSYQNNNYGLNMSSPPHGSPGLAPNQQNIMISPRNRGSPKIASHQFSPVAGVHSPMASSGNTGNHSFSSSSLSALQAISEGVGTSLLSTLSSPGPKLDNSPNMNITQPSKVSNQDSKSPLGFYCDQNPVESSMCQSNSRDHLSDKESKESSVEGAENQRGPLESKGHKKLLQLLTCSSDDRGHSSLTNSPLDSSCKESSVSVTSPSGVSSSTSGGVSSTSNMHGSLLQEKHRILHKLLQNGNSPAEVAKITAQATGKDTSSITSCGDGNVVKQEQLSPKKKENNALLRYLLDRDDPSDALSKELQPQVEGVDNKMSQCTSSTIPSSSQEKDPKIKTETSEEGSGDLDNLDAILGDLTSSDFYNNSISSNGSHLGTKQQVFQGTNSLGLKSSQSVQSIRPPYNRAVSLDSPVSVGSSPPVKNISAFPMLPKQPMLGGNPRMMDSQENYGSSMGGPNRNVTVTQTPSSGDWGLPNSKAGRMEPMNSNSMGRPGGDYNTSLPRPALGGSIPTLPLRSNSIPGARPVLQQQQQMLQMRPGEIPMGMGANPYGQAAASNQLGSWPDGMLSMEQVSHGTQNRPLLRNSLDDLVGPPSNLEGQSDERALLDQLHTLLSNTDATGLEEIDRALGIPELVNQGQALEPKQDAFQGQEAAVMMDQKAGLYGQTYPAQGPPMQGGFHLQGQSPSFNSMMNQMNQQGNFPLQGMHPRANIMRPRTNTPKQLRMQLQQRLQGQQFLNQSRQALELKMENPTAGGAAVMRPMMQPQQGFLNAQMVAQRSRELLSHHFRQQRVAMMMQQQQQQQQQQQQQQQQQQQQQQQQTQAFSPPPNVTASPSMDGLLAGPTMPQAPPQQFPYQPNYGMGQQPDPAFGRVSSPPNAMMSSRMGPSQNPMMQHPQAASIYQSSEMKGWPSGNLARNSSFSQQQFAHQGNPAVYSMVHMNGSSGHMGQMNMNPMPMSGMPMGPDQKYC", "test": "trimeric far-Western: unlabeled full-length RAC3 held on CBP fragments C and D, then 35S-labeled RAR, with ligand"}, "[3]": {"molecular_target": "T1, RAC3.1 (yeast two-hybrid clone, RAC3 …)", "test": "yeast two-hybrid, β-galactosidase ONPG assay, 1 µM ligand"}, "[4]": {"molecular_target": "B2", "test": "far-Western, GST-RAC3-RID on the filter, 35S-labeled receptor, 1 µM all-trans retinoic acid"}, "[5]": {"molecular_target": "T3, VP16 AD-full-length hRARα fusion (human, UniProt P10276 1-462)", "T3 construct": "mature; also called VP16-RAR", "T3 sequence": "B2 chain", "test": "mammalian two-hybrid, luciferase reporter, with or without 1 µM atRA"}, "[6]": {"molecular_target": "T1, RAC3.1 (yeast two-hybrid clone, RAC3 …)", "test": "yeast two-hybrid, β-galactosidase liquid ONPG assay"}, "[7]": {"molecular_target": "T1, RAC3.1 (yeast two-hybrid clone, RAC3 …)", "test": "yeast two-hybrid, with or without 1 µM ligand"}}, "data": [{"binder": "B1", "values": [{"measurement": "binding result", "setting": "[1]", "value": "binds"}]}, {"binder": "B2", "values": [{"measurement": "binding result", "setting": "[2]", "value": "binds"}]}, {"binder": "B3", "values": [{"measurement": "binding result", "setting": "[3]", "value": "binds"}]}, {"binder": "B4", "values": [{"measurement": "binding result", "setting": "[4]", "value": "binds"}]}, {"binder": "B5", "values": [{"measurement": "binding result", "setting": "[5]", "value": "no binding"}]}, {"binder": "B6", "values": [{"measurement": "binding result", "setting": "[6]", "value": "no binding"}]}, {"binder": "B7", "values": [{"measurement": "binding result", "setting": "[7]", "value": "no binding"}]}, {"binder": "B8", "values": [{"measurement": "binding result", "setting": "[5]", "value": "no binding"}]}]}
